In the supplement of paper PMC10065799, “High-throughput profiling of sequence recognition by tyrosine kinases and SH2 domains using bacterial peptide display” (eLife, 2023):

target: EPHB1 (UniProt P54762); assay: phosphorylation enrichment, bacterial display (enrichment ratio); higher = better substrate or ligand; peptides without Tyr show the background
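Note: 11-residue human phosphosite peptides and single-mutation variants displayed on the E. coli surface, counted by deep sequencing, each peptide's frequency after selection divided by its frequency in the unselected input library; frequency after pTyr selection over input frequency; kinase dosed for 20-30% of maximal phosphorylation in three min.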

EPHB1, sequence (P54762 whole entry, looked up): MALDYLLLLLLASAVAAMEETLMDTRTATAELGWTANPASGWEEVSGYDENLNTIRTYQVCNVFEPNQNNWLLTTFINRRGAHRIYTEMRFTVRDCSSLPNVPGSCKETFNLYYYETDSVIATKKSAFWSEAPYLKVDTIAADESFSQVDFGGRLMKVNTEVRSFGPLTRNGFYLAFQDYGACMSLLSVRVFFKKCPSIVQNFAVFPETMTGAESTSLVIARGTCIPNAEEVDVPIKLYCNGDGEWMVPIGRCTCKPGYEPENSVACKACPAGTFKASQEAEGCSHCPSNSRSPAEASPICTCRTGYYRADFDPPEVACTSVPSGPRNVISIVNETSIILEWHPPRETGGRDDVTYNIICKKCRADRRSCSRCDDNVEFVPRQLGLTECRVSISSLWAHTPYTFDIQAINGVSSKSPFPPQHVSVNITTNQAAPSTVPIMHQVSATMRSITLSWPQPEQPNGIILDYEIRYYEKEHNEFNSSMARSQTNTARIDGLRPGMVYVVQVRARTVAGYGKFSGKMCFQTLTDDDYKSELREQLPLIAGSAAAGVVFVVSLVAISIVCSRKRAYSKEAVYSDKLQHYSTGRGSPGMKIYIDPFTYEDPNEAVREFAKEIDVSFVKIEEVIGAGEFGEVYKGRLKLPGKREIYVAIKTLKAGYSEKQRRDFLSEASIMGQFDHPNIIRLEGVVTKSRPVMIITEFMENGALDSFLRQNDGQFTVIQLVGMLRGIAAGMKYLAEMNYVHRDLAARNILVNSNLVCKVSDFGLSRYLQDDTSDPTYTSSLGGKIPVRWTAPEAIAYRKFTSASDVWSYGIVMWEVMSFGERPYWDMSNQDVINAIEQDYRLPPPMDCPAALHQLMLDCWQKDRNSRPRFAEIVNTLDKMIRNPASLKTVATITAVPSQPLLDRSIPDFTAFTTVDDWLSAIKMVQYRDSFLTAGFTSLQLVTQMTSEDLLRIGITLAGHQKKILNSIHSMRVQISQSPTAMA

| Sequence | phosphorylation enrichment |
| --- | --- |
| THPFLYLTLEI [MLH1_Y293_S295T] | 0.889 |
| AEKPKYQISNI [TJP1_Y1602_N1605S] | 0.286 |
| KRLFAYKMLMA [TMC2_Y209_Q205R_YF] | 0.484 |
| GAVDTYCRHNF [HLA-DRB1_Y107_A102G_YF] | 0.695 |
| VHFARYLAMNK [HARS1_Y138_P134H] | 0.504 |
| DPLLTYQFPPK [LMNA_Y481_R482Q] | 0.597 |
| WKESWYSMRKM [FGB_Y475_G472E] | 0.714 |
| WCSNDYLGMSQ [ALAS2_Y199_R204Q] | 1.52 |
| IVGLLYRLLTE [SETX_Y1978] | 0.665 |
| PSDSGYSYETI [MAP1B_Y1921] | 0.596 |
| RGFDTYFGFLL [ARSB_Y165_YF] | 4.25 |
| YRKNIYNVKST [SYNE2_Y575] | 0.337 |
| TTKVSYRASQP [MKI67_Y1737] | 0.3 |
| LARDMCDKEFF [MET_Y1230_Y1230C_YF] | 0.61 |
| CTIIHYNFMCN [TP53_Y234_T231I_YF] | 0.718 |
| PSQRCYVYYYS [PTEN_Y174_R173C] | 0.931 |
| GQRDLYSGLNQ [CD3E_Y199] | 2.25 |

| Sequence | phosphorylation enrichment |
| --- | --- |
| PEPHIYAVADV [MYO9A_Y216_L211P] | 1.11 |
| FEAMEYLESKQ [BTK_Y511_C506Y_YF] | 0.534 |
| YSNVLYRPRGP [TMIGD2_Y197_A202P] | 0.492 |
| YPKARYRWLVL [APTX_Y214_H215R] | 0.434 |
| YKGKKYKPLDL [RPL35_Y78] | 0.283 |
| TGDVQYRSSVR [FREM2_Y2158] | 0.292 |
| LNTFHHAGVSA [POLR2A_Y1109_Y1109H] | 0.632 |
| AQMAMYFWEMS [TRPM4_Y577_G582S] | 1.09 |
| VTVLDYDKIGK [SYT1_Y365] | 0.45 |
| TQNGVYSAANF [DDX5_Y535_YF] | 1.4 |
| CYCSWYRGWAP [TIMP3_Y195_G190C] | 0.628 |
| WQQQSYLDFGI [CTNNB1_Y30_S33F] | 0.635 |
| TYGNLYGSRKQ [YIPF7_Y59_A54T] | 0.434 |
| GPGSGYTNIMR [PKLR_Y564_R559G] | 0.48 |
| HNGVSYFINLC [IGF2R_Y2024_YF] | 1.17 |
| RKIMGYSIRTI [IDS_Y490_I485R] | 0.676 |

test system: c-Abl (mouse); assay: as above

| Sequence | phosphorylation enrichment |
| --- | --- |
| THPFLYLTLEI [MLH1_Y293_S295T] | 1.22 |
| AEKPKYQISNI [TJP1_Y1602_N1605S] | 0.54 |
| KRLFAYKMLMA [TMC2_Y209_Q205R_YF] | 0.58 |
| GAVDTYCRHNF [HLA-DRB1_Y107_A102G_YF] | 0.583 |
| VHFARYLAMNK [HARS1_Y138_P134H] | 0.565 |
| DPLLTYQFPPK [LMNA_Y481_R482Q] | 0.549 |
| WKESWYSMRKM [FGB_Y475_G472E] | 0.792 |
| WCSNDYLGMSQ [ALAS2_Y199_R204Q] | 0.782 |
| IVGLLYRLLTE [SETX_Y1978] | 0.733 |
| PSDSGYSYETI [MAP1B_Y1921] | 0.664 |
| RGFDTYFGFLL [ARSB_Y165_YF] | 1.14 |
| YRKNIYNVKST [SYNE2_Y575] | 0.405 |
| TTKVSYRASQP [MKI67_Y1737] | 0.638 |
| LARDMCDKEFF [MET_Y1230_Y1230C_YF] | 1.42 |
| CTIIHYNFMCN [TP53_Y234_T231I_YF] | 0.825 |
| PSQRCYVYYYS [PTEN_Y174_R173C] | 1.77 |
| GQRDLYSGLNQ [CD3E_Y199] | 1.06 |

| Sequence | phosphorylation enrichment |
| --- | --- |
| PEPHIYAVADV [MYO9A_Y216_L211P] | 25 |
| FEAMEYLESKQ [BTK_Y511_C506Y_YF] | 0.966 |
| YSNVLYRPRGP [TMIGD2_Y197_A202P] | 0.461 |
| YPKARYRWLVL [APTX_Y214_H215R] | 0.499 |
| YKGKKYKPLDL [RPL35_Y78] | 0.508 |
| TGDVQYRSSVR [FREM2_Y2158] | 0.459 |
| LNTFHHAGVSA [POLR2A_Y1109_Y1109H] | 1.36 |
| AQMAMYFWEMS [TRPM4_Y577_G582S] | 1.14 |
| VTVLDYDKIGK [SYT1_Y365] | 0.482 |
| TQNGVYSAANF [DDX5_Y535_YF] | 2 |
| CYCSWYRGWAP [TIMP3_Y195_G190C] | 0.882 |
| WQQQSYLDFGI [CTNNB1_Y30_S33F] | 0.658 |
| TYGNLYGSRKQ [YIPF7_Y59_A54T] | 0.864 |
| GPGSGYTNIMR [PKLR_Y564_R559G] | 0.827 |
| HNGVSYFINLC [IGF2R_Y2024_YF] | 1.24 |
| RKIMGYSIRTI [IDS_Y490_I485R] | 0.759 |

test system: AncSZ; assay: as above

| Sequence | phosphorylation enrichment |
| --- | --- |
| THPFLYLTLEI [MLH1_Y293_S295T] | 1.71 |
| AEKPKYQISNI [TJP1_Y1602_N1605S] | 0.896 |
| KRLFAYKMLMA [TMC2_Y209_Q205R_YF] | 0.767 |
| GAVDTYCRHNF [HLA-DRB1_Y107_A102G_YF] | 0.649 |
| VHFARYLAMNK [HARS1_Y138_P134H] | 0.864 |
| DPLLTYQFPPK [LMNA_Y481_R482Q] | 1.25 |
| WKESWYSMRKM [FGB_Y475_G472E] | 1.05 |
| WCSNDYLGMSQ [ALAS2_Y199_R204Q] | 2.88 |
| IVGLLYRLLTE [SETX_Y1978] | 1.29 |
| PSDSGYSYETI [MAP1B_Y1921] | 1.35 |
| RGFDTYFGFLL [ARSB_Y165_YF] | 1.68 |
| YRKNIYNVKST [SYNE2_Y575] | 0.488 |
| TTKVSYRASQP [MKI67_Y1737] | 0.602 |
| LARDMCDKEFF [MET_Y1230_Y1230C_YF] | 1.79 |
| CTIIHYNFMCN [TP53_Y234_T231I_YF] | 1.12 |
| PSQRCYVYYYS [PTEN_Y174_R173C] | 2.35 |
| GQRDLYSGLNQ [CD3E_Y199] | 1.11 |

| Sequence | phosphorylation enrichment |
| --- | --- |
| PEPHIYAVADV [MYO9A_Y216_L211P] | 1.11 |
| FEAMEYLESKQ [BTK_Y511_C506Y_YF] | 1.24 |
| YSNVLYRPRGP [TMIGD2_Y197_A202P] | 0.796 |
| YPKARYRWLVL [APTX_Y214_H215R] | 0.786 |
| YKGKKYKPLDL [RPL35_Y78] | 0.462 |
| TGDVQYRSSVR [FREM2_Y2158] | 0.529 |
| LNTFHHAGVSA [POLR2A_Y1109_Y1109H] | 0.884 |
| AQMAMYFWEMS [TRPM4_Y577_G582S] | 1.86 |
| VTVLDYDKIGK [SYT1_Y365] | 0.621 |
| TQNGVYSAANF [DDX5_Y535_YF] | 0.56 |
| CYCSWYRGWAP [TIMP3_Y195_G190C] | 1.03 |
| WQQQSYLDFGI [CTNNB1_Y30_S33F] | 0.883 |
| TYGNLYGSRKQ [YIPF7_Y59_A54T] | 0.655 |
| GPGSGYTNIMR [PKLR_Y564_R559G] | 0.553 |
| HNGVSYFINLC [IGF2R_Y2024_YF] | 1.57 |
| RKIMGYSIRTI [IDS_Y490_I485R] | 0.699 |

target: FGFR1 (UniProt P11362); assay: as above
Sequence (P11362 whole entry, looked up): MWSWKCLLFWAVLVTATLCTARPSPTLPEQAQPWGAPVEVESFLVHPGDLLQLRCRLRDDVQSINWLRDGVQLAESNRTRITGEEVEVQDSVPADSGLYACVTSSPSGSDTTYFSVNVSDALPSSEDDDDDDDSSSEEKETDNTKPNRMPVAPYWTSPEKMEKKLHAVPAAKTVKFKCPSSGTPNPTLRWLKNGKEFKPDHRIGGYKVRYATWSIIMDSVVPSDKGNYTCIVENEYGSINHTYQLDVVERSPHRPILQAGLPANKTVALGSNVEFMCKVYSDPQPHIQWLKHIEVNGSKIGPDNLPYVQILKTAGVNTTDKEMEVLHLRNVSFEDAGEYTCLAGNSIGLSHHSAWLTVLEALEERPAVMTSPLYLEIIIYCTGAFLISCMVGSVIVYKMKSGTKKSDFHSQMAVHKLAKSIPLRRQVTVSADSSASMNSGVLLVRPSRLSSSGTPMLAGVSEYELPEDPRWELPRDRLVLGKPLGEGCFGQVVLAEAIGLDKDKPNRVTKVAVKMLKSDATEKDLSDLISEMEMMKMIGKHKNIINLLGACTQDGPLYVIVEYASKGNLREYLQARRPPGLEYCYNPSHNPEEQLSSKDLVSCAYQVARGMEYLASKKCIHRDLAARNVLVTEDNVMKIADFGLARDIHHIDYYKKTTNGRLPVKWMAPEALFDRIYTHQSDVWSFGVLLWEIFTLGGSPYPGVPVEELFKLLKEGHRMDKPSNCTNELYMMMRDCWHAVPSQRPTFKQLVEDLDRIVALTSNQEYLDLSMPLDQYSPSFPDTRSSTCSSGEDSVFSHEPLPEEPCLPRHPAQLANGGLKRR

| Sequence | phosphorylation enrichment |
| --- | --- |
| THPFLYLTLEI [MLH1_Y293_S295T] | 0.652 |
| AEKPKYQISNI [TJP1_Y1602_N1605S] | 0.358 |
| KRLFAYKMLMA [TMC2_Y209_Q205R_YF] | 0.458 |
| GAVDTYCRHNF [HLA-DRB1_Y107_A102G_YF] | 0.427 |
| VHFARYLAMNK [HARS1_Y138_P134H] | 0.511 |
| DPLLTYQFPPK [LMNA_Y481_R482Q] | 1.69 |
| WKESWYSMRKM [FGB_Y475_G472E] | 0.513 |
| WCSNDYLGMSQ [ALAS2_Y199_R204Q] | 3.03 |
| IVGLLYRLLTE [SETX_Y1978] | 0.699 |
| PSDSGYSYETI [MAP1B_Y1921] | 0.627 |
| RGFDTYFGFLL [ARSB_Y165_YF] | 3.4 |
| YRKNIYNVKST [SYNE2_Y575] | 0.384 |
| TTKVSYRASQP [MKI67_Y1737] | 0.355 |
| LARDMCDKEFF [MET_Y1230_Y1230C_YF] | 0.492 |
| CTIIHYNFMCN [TP53_Y234_T231I_YF] | 0.524 |
| PSQRCYVYYYS [PTEN_Y174_R173C] | 1.41 |
| GQRDLYSGLNQ [CD3E_Y199] | 0.449 |

| Sequence | phosphorylation enrichment |
| --- | --- |
| PEPHIYAVADV [MYO9A_Y216_L211P] | 0.667 |
| FEAMEYLESKQ [BTK_Y511_C506Y_YF] | 0.527 |
| YSNVLYRPRGP [TMIGD2_Y197_A202P] | 0.685 |
| YPKARYRWLVL [APTX_Y214_H215R] | 0.611 |
| YKGKKYKPLDL [RPL35_Y78] | 0.405 |
| TGDVQYRSSVR [FREM2_Y2158] | 0.468 |
| LNTFHHAGVSA [POLR2A_Y1109_Y1109H] | 0.462 |
| AQMAMYFWEMS [TRPM4_Y577_G582S] | 3.42 |
| VTVLDYDKIGK [SYT1_Y365] | 0.505 |
| TQNGVYSAANF [DDX5_Y535_YF] | 0.489 |
| CYCSWYRGWAP [TIMP3_Y195_G190C] | 1.19 |
| WQQQSYLDFGI [CTNNB1_Y30_S33F] | 0.816 |
| TYGNLYGSRKQ [YIPF7_Y59_A54T] | 0.486 |
| GPGSGYTNIMR [PKLR_Y564_R559G] | 0.35 |
| HNGVSYFINLC [IGF2R_Y2024_YF] | 0.783 |
| RKIMGYSIRTI [IDS_Y490_I485R] | 0.664 |
